For test [1], the target named is T1, mouse tissue factor pathway inhibitor (TFPI) (mouse, UniProt O54819 29-289, limits assumed).
T1 construct: bought; also called mTFPI; murine TFPI
T1 sequence (looked up): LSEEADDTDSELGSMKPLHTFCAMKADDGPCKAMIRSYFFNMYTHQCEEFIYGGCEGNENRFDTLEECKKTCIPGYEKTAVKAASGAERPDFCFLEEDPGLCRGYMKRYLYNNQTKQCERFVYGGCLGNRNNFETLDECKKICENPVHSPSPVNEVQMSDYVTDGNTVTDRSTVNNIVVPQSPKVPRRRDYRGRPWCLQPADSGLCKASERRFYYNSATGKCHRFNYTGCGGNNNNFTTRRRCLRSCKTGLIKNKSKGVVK
The test can be described thus: competitive ELISA.

The target in test [2] is T2, human tissue factor pathway inhibitor (TFPI) (human, UniProt P10646 29-304, limits assumed).
T2 construct: bought; also called hTFPI; human TFPI
T2 sequence (looked up): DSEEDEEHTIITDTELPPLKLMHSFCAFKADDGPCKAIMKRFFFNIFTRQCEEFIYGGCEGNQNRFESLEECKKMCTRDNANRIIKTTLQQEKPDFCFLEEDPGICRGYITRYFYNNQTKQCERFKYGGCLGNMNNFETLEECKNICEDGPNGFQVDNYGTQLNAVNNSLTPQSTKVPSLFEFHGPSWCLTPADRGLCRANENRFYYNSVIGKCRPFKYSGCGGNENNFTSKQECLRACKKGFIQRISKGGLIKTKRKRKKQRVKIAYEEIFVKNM
The test can be described thus: competitive ELISA.

B1: 4B7 HC N32D+D62R+Y112D/LC S32R+D33F+N35I+G56V+D97T (Fab, V domains shown)
VH: QVQLQQSGPGLVKPSQTLSLTCAISGDSVSSDSAAWSWIRQSPGRGLEWLGIIYKRSKWYNRYAVSVKSRITINPDTSKNQFSLQLNSVTPEDTAVYYCARWHSDKHWGFDDWGQGTLVTVSS
VL: DIVMTQSPLSLPVTPGEPASISCRSSQSLVFRFGITYLNWYLQKPGQSPQLLIYKVSNRASGVPDRFSGSGSGTDFTLKISRVEAEDVGVYYCQQYTSYPLTFGQGTKVEIKR
B1: in test [1], the binding result is reported as “no binding”. Besides, the variant/HC_D62R in test [2] turned out to be 12.1 ratio.

B2: 4B7 HC N32D+K55Y+D62Q+Y112D/LC F31I+D33F+N35I (Fab, V domains shown)
VH: QVQLQQSGPGLVKPSQTLSLTCAISGDSVSSDSAAWSWIRQSPGRGLEWLGIIYYRSKWYNQYAVSVKSRITINPDTSKNQFSLQLNSVTPEDTAVYYCARWHSDKHWGFDDWGQGTLVTVSS
VL: DIVMTQSPLSLPVTPGEPASISCRSSQSLVISFGITYLNWYLQKPGQSPQLLIYKGSNRASGVPDRFSGSGSGTDFTLKISRVEAEDVGVYYCQQYDSYPLTFGQGTKVEIKR
As to B2, the variant/HC_D62R came out at 26.2 ratio in test [1] and 25.6 ratio in test [2].

B3: 4B7 HC N32D+D62R+Y112D/LC V30L+S32R+D33F+N35I+T36N+D97T (Fab, V domains shown)
VH: QVQLQQSGPGLVKPSQTLSLTCAISGDSVSSDSAAWSWIRQSPGRGLEWLGIIYKRSKWYNRYAVSVKSRITINPDTSKNQFSLQLNSVTPEDTAVYYCARWHSDKHWGFDDWGQGTLVTVSS
VL: DIVMTQSPLSLPVTPGEPASISCRSSQSLLFRFGINYLNWYLQKPGQSPQLLIYKGSNRASGVPDRFSGSGSGTDFTLKISRVEAEDVGVYYCQQYTSYPLTFGQGTKVEIKR
With B3, the variant/HC_D62R in test [1] was 28.4 ratio; in test [2] it was 23.9 ratio.

B4: 4B7 HC N32D+D62R+Y112D/LC S32R+D33F+N35I+T36N+D97T (Fab, V domains shown)
VH: QVQLQQSGPGLVKPSQTLSLTCAISGDSVSSDSAAWSWIRQSPGRGLEWLGIIYKRSKWYNRYAVSVKSRITINPDTSKNQFSLQLNSVTPEDTAVYYCARWHSDKHWGFDDWGQGTLVTVSS
VL: DIVMTQSPLSLPVTPGEPASISCRSSQSLVFRFGINYLNWYLQKPGQSPQLLIYKGSNRASGVPDRFSGSGSGTDFTLKISRVEAEDVGVYYCQQYTSYPLTFGQGTKVEIKR
On to B4, for which the variant/HC_D62R worked out at 35.4 ratio in test [1] and 25.2 ratio in test [2].

B5: 4B7 HC N32D+D62R+Y112D/LC V30L+S32R+D33F+N35I+D97T (Fab, V domains shown)
VH: QVQLQQSGPGLVKPSQTLSLTCAISGDSVSSDSAAWSWIRQSPGRGLEWLGIIYKRSKWYNRYAVSVKSRITINPDTSKNQFSLQLNSVTPEDTAVYYCARWHSDKHWGFDDWGQGTLVTVSS
VL: DIVMTQSPLSLPVTPGEPASISCRSSQSLLFRFGITYLNWYLQKPGQSPQLLIYKGSNRASGVPDRFSGSGSGTDFTLKISRVEAEDVGVYYCQQYTSYPLTFGQGTKVEIKR
As to B5, the variant/HC_D62R in test [1] is 42.2 ratio; in test [2], 26.1 ratio.

B6: 4B7 HC N32D+D62R+Y112D/LC S32R+D33F+N35I+N39D+D97T (Fab, V domains shown)
VH: QVQLQQSGPGLVKPSQTLSLTCAISGDSVSSDSAAWSWIRQSPGRGLEWLGIIYKRSKWYNRYAVSVKSRITINPDTSKNQFSLQLNSVTPEDTAVYYCARWHSDKHWGFDDWGQGTLVTVSS
VL: DIVMTQSPLSLPVTPGEPASISCRSSQSLVFRFGITYLDWYLQKPGQSPQLLIYKGSNRASGVPDRFSGSGSGTDFTLKISRVEAEDVGVYYCQQYTSYPLTFGQGTKVEIKR
For the molecule B6, the binding result in test [1] is “no binding”. Further, the variant/HC_D62R in test [2] amounted to 1.3 ratio.

B7: 4B7 HC N32D+D62R+Y112D/LC S32R+D33F+N35I+L51R+D97T (Fab, V domains shown)
VH: QVQLQQSGPGLVKPSQTLSLTCAISGDSVSSDSAAWSWIRQSPGRGLEWLGIIYKRSKWYNRYAVSVKSRITINPDTSKNQFSLQLNSVTPEDTAVYYCARWHSDKHWGFDDWGQGTLVTVSS
VL: DIVMTQSPLSLPVTPGEPASISCRSSQSLVFRFGITYLNWYLQKPGQSPQRLIYKGSNRASGVPDRFSGSGSGTDFTLKISRVEAEDVGVYYCQQYTSYPLTFGQGTKVEIKR
Regarding B7, the variant/HC_D62R was determined as 5.2 ratio in test [1] and 11.2 ratio in test [2].

B8: 4B7 HC N32D+D62R+Y112D/LC S32R+D33F+N35I+K44R+D97T (Fab, V domains shown)
VH: QVQLQQSGPGLVKPSQTLSLTCAISGDSVSSDSAAWSWIRQSPGRGLEWLGIIYKRSKWYNRYAVSVKSRITINPDTSKNQFSLQLNSVTPEDTAVYYCARWHSDKHWGFDDWGQGTLVTVSS
VL: DIVMTQSPLSLPVTPGEPASISCRSSQSLVFRFGITYLNWYLQRPGQSPQLLIYKGSNRASGVPDRFSGSGSGTDFTLKISRVEAEDVGVYYCQQYTSYPLTFGQGTKVEIKR
In the case of B8, the variant/HC_D62R amounted to 40.1 ratio in test [1] and 26 ratio in test [2].

B9: 4B7 HC N32D+D62S+H107M+Y112D/LC S32R+D33R+N35T (Fab, V domains shown)
VH: QVQLQQSGPGLVKPSQTLSLTCAISGDSVSSDSAAWSWIRQSPGRGLEWLGIIYKRSKWYNSYAVSVKSRITINPDTSKNQFSLQLNSVTPEDTAVYYCARWHSDKMWGFDDWGQGTLVTVSS
VL: DIVMTQSPLSLPVTPGEPASISCRSSQSLVFRRGTTYLNWYLQKPGQSPQLLIYKGSNRASGVPDRFSGSGSGTDFTLKISRVEAEDVGVYYCQQYDSYPLTFGQGTKVEIKR
On to B9, for which the variant/HC_D62R in test [1] worked out at 20.3 ratio; in test [2], 19.6 ratio.

B10: 4B7 HC N32D+D62R+Y112D/LC V30L+S32R+N35I+T36N (Fab, V domains shown)
VH: QVQLQQSGPGLVKPSQTLSLTCAISGDSVSSDSAAWSWIRQSPGRGLEWLGIIYKRSKWYNRYAVSVKSRITINPDTSKNQFSLQLNSVTPEDTAVYYCARWHSDKHWGFDDWGQGTLVTVSS
VL: DIVMTQSPLSLPVTPGEPASISCRSSQSLLFRDGINYLNWYLQKPGQSPQLLIYKGSNRASGVPDRFSGSGSGTDFTLKISRVEAEDVGVYYCQQYDSYPLTFGQGTKVEIKR
Take B10: the variant/HC_D62R in test [1] was determined as 7 ratio; in test [2] it was 25 ratio.

B11: 4B7 HC N32D+G44S+D62R+Y112D/LC S32R+D33F+N35I+D97T (Fab, V domains shown)
VH: QVQLQQSGPGLVKPSQTLSLTCAISGDSVSSDSAAWSWIRQSPSRGLEWLGIIYKRSKWYNRYAVSVKSRITINPDTSKNQFSLQLNSVTPEDTAVYYCARWHSDKHWGFDDWGQGTLVTVSS
VL: DIVMTQSPLSLPVTPGEPASISCRSSQSLVFRFGITYLNWYLQKPGQSPQLLIYKGSNRASGVPDRFSGSGSGTDFTLKISRVEAEDVGVYYCQQYTSYPLTFGQGTKVEIKR
As to B11, the values for the variant/HC_D62R in test [1] and in test [2] were 41.5 ratio and 26.5 ratio, respectively.

B12: 4B7 HC N32D+D62R+Y112D/LC S32R+D33F+N35I+K55L+D97T (Fab, V domains shown)
VH: QVQLQQSGPGLVKPSQTLSLTCAISGDSVSSDSAAWSWIRQSPGRGLEWLGIIYKRSKWYNRYAVSVKSRITINPDTSKNQFSLQLNSVTPEDTAVYYCARWHSDKHWGFDDWGQGTLVTVSS
VL: DIVMTQSPLSLPVTPGEPASISCRSSQSLVFRFGITYLNWYLQKPGQSPQLLIYLGSNRASGVPDRFSGSGSGTDFTLKISRVEAEDVGVYYCQQYTSYPLTFGQGTKVEIKR
As to B12, in test [1], the binding result is given as “no binding”. The same molecule registered a variant/HC_D62R in test [2] of 7.8 ratio.

B13: 4B7 HC N32D+D62R+Y112D/LC S32R+D33F+N35I+L42Q+D97T (Fab, V domains shown)
VH: QVQLQQSGPGLVKPSQTLSLTCAISGDSVSSDSAAWSWIRQSPGRGLEWLGIIYKRSKWYNRYAVSVKSRITINPDTSKNQFSLQLNSVTPEDTAVYYCARWHSDKHWGFDDWGQGTLVTVSS
VL: DIVMTQSPLSLPVTPGEPASISCRSSQSLVFRFGITYLNWYQQKPGQSPQLLIYKGSNRASGVPDRFSGSGSGTDFTLKISRVEAEDVGVYYCQQYTSYPLTFGQGTKVEIKR
Regarding B13, the variant/HC_D62R stood at 43 ratio in test [1] and 26.9 ratio in test [2].

B14: 4B7 HC N32D+D62R+Y112D/LC S32R+D33F+N35I+Q50R+D97T (Fab, V domains shown)
VH: QVQLQQSGPGLVKPSQTLSLTCAISGDSVSSDSAAWSWIRQSPGRGLEWLGIIYKRSKWYNRYAVSVKSRITINPDTSKNQFSLQLNSVTPEDTAVYYCARWHSDKHWGFDDWGQGTLVTVSS
VL: DIVMTQSPLSLPVTPGEPASISCRSSQSLVFRFGITYLNWYLQKPGQSPRLLIYKGSNRASGVPDRFSGSGSGTDFTLKISRVEAEDVGVYYCQQYTSYPLTFGQGTKVEIKR
For B14, the values for the variant/HC_D62R in test [1] and in test [2] were 39.4 ratio and 25.9 ratio, respectively.

B15: 4B7 HC N32D+I53T+D62R+Y112D/LC S32R+D33F+N35I+D97T (Fab, V domains shown)
VH: QVQLQQSGPGLVKPSQTLSLTCAISGDSVSSDSAAWSWIRQSPGRGLEWLGITYKRSKWYNRYAVSVKSRITINPDTSKNQFSLQLNSVTPEDTAVYYCARWHSDKHWGFDDWGQGTLVTVSS
VL: DIVMTQSPLSLPVTPGEPASISCRSSQSLVFRFGITYLNWYLQKPGQSPQLLIYKGSNRASGVPDRFSGSGSGTDFTLKISRVEAEDVGVYYCQQYTSYPLTFGQGTKVEIKR
In the case of B15, the variant/HC_D62R in test [1] came to 8.3 ratio; in test [2], 19.6 ratio.

B16: 4B7 HC N32D+I53T+D62Q+Y112D/LC F31I+D33F+N35I (Fab, V domains shown)
VH: QVQLQQSGPGLVKPSQTLSLTCAISGDSVSSDSAAWSWIRQSPGRGLEWLGITYKRSKWYNQYAVSVKSRITINPDTSKNQFSLQLNSVTPEDTAVYYCARWHSDKHWGFDDWGQGTLVTVSS
VL: DIVMTQSPLSLPVTPGEPASISCRSSQSLVISFGITYLNWYLQKPGQSPQLLIYKGSNRASGVPDRFSGSGSGTDFTLKISRVEAEDVGVYYCQQYDSYPLTFGQGTKVEIKR
As for B16, in test [1], the binding result was “no binding”. Also, the variant/HC_D62R in test [2] worked out at 5.7 ratio.

B17: 4B7 HC N32D+D62R+Y112D/LC S32R+D33R (Fab, V domains shown)
VH: QVQLQQSGPGLVKPSQTLSLTCAISGDSVSSDSAAWSWIRQSPGRGLEWLGIIYKRSKWYNRYAVSVKSRITINPDTSKNQFSLQLNSVTPEDTAVYYCARWHSDKHWGFDDWGQGTLVTVSS
VL: DIVMTQSPLSLPVTPGEPASISCRSSQSLVFRRGNTYLNWYLQKPGQSPQLLIYKGSNRASGVPDRFSGSGSGTDFTLKISRVEAEDVGVYYCQQYDSYPLTFGQGTKVEIKR
On to B17, for which the results for the variant/HC_D62R in test [1] and in test [2] were 7.2 ratio and 14.8 ratio, respectively.
